The values that follow come from patent publication US20240034764A1.

This assay deals with IL-10Rα receptor on MC/9 mouse mast cells (mouse) (UniProt Q61727). In words: cell-based or functional assay.
Sequence of UniProt Q61727 (Q61727 17-575): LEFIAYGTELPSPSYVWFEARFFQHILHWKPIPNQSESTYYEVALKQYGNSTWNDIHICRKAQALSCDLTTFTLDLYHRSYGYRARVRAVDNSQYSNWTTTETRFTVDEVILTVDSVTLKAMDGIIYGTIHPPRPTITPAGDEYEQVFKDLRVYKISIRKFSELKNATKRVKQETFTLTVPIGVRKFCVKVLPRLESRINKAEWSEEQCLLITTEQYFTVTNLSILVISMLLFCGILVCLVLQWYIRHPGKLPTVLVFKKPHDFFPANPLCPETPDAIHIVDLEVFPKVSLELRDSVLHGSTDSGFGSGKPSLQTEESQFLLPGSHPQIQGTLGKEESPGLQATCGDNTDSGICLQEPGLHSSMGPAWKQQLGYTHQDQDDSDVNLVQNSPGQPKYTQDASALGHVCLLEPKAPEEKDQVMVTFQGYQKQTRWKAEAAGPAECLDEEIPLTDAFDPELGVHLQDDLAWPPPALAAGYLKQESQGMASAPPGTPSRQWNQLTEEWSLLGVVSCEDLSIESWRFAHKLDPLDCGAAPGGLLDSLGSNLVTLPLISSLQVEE

In the case of “recombinant human IL-10 (Peprotech catalog number 200-10) (from UniProt P22301 19-178) (ligand)”, the half maximal effective concentration (EC50), proliferation of MC/9 cells in the presence of IL4 (Alamar Blue) amounted to 0.0917 nM.
